In the supplement of paper PMC9112550, “Optimization of the antimicrobial peptide Bac7 by deep mutational scanning” (BMC Biology, 2022):

system: Escherichia coli TOP10; assay: shrunken log2 fold change of peptide-encoding DNA abundance (4.5 h post-induction vs induction); higher = less antimicrobial activity (less host growth inhibition); settings: time post-induction: 4.5 h; library: site-saturation at positions 5, 18, 19, 20
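Note: peptides expressed intracellularly from a pBAD plasmid library in pooled LB shake-flask culture, induced with 0.3% L-arabinose, DNA abundance read by NGS, three biological replicates, DESeq2 with apeglm shrinkage.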

| Sequence | shrunken log2 fold change |
| --- | --- |
| RRIRTRPPRLPRPRPRPTSQPRP | -0.00402 |
| RRIRTRPPRLPRPRPRPTTAPRP | 0.0738 |
| RRIRTRPPRLPRPRPRPTTHPRP | 0.05 |
| RRIRTRPPRLPRPRPRPTTWPRP | -0.0444 |
| RRIRTRPPRLPRPRPRPTYMPRP | -0.32 |
| RRIRTRPPRLPRPRPRPTYTPRP | -0.496 |
| RRIRTRPPRLPRPRPRPTYVPRP | -0.163 |
| RRIRTRPPRLPRPRPRPVAPPRP | 0.389 |
| RRIRTRPPRLPRPRPRPVCHPRP | -0.173 |
| RRIRTRPPRLPRPRPRPVCYPRP | -0.531 |
| RRIRTRPPRLPRPRPRPVDWPRP | 0.0292 |
| RRIRTRPPRLPRPRPRPVESPRP | 0.141 |
| RRIRTRPPRLPRPRPRPVFHPRP | -0.136 |
| RRIRTRPPRLPRPRPRPVGAPRP | 0.327 |
| RRIRTRPPRLPRPRPRPVIGPRP | 0.13 |
| RRIRTRPPRLPRPRPRPVKQPRP | -0.00945 |
| RRIRTRPPRLPRPRPRPVLFPRP | -0.193 |
| RRIRTRPPRLPRPRPRPVNTPRP | -0.103 |
| RRIRTRPPRLPRPRPRPVPFPRP | 0.0392 |
| RRIRTRPPRLPRPRPRPVQIPRP | -0.0381 |
| RRIRTRPPRLPRPRPRPVRCPRP | 0.382 |
| RRIRTRPPRLPRPRPRPVRHPRP | -0.041 |

| Sequence | shrunken log2 fold change |
| --- | --- |
| RRIRTRPPRLPRPRPRPVSCPRP | -0.206 |
| RRIRTRPPRLPRPRPRPVSLPRP | -0.298 |
| RRIRTRPPRLPRPRPRPVVEPRP | 0.0529 |
| RRIRTRPPRLPRPRPRPVVFPRP | -0.184 |
| RRIRTRPPRLPRPRPRPVWAPRP | 0.237 |
| RRIRTRPPRLPRPRPRPVWLPRP | -0.101 |
| RRIRTRPPRLPRPRPRPVWYPRP | -0.456 |
| RRIRTRPPRLPRPRPRPWAQPRP | 0.0456 |
| RRIRTRPPRLPRPRPRPWCAPRP | -0.203 |
| RRIRTRPPRLPRPRPRPWCIPRP | -0.19 |
| RRIRTRPPRLPRPRPRPWCQPRP | -0.134 |
| RRIRTRPPRLPRPRPRPWCRPRP | -0.263 |
| RRIRTRPPRLPRPRPRPWEHPRP | -0.069 |
| RRIRTRPPRLPRPRPRPWFWPRP | 0.0569 |
| RRIRTRPPRLPRPRPRPWGKPRP | 0.201 |
| RRIRTRPPRLPRPRPRPWGSPRP | 0.0639 |
| RRIRTRPPRLPRPRPRPWHHPRP | 0.0255 |
| RRIRTRPPRLPRPRPRPWHRPRP | -0.126 |
| RRIRTRPPRLPRPRPRPWHYPRP | -0.268 |
| RRIRTRPPRLPRPRPRPWIDPRP | -0.0368 |
| RRIRTRPPRLPRPRPRPWIEPRP | -0.042 |
| RRIRTRPPRLPRPRPRPWIKPRP | -0.231 |

| Sequence | shrunken log2 fold change |
| --- | --- |
| RRIRTRPPRLPRPRPRPWMAPRP | -0.295 |
| RRIRTRPPRLPRPRPRPWPGPRP | 0.0416 |
| RRIRTRPPRLPRPRPRPWWHPRP | -0.279 |
| RRIRTRPPRLPRPRPRPWYAPRP | -0.521 |
| RRIRTRPPRLPRPRPRPWYEPRP | -0.145 |
| RRIRTRPPRLPRPRPRPWYLPRP | -0.0692 |
| RRIRTRPPRLPRPRPRPWYSPRP | -0.818 |
| RRIRTRPPRLPRPRPRPYCNPRP | -1.32 |
| RRIRTRPPRLPRPRPRPYDNPRP | -0.141 |
| RRIRTRPPRLPRPRPRPYFPPRP | -0.995 |
| RRIRTRPPRLPRPRPRPYFTPRP | -1.11 |
| RRIRTRPPRLPRPRPRPYGRPRP | -0.27 |
| RRIRTRPPRLPRPRPRPYHHPRP | -0.59 |
| RRIRTRPPRLPRPRPRPYIAPRP | -0.476 |
| RRIRTRPPRLPRPRPRPYIFPRP | -0.947 |
| RRIRTRPPRLPRPRPRPYIGPRP | -0.119 |
| RRIRTRPPRLPRPRPRPYIQPRP | -0.274 |
| RRIRTRPPRLPRPRPRPYKAPRP | -1.77 |
| RRIRTRPPRLPRPRPRPYLAPRP | -0.378 |
| RRIRTRPPRLPRPRPRPYLCPRP | -0.189 |
| RRIRTRPPRLPRPRPRPYMNPRP | -0.895 |
| RRIRTRPPRLPRPRPRPYNPPRP | -0.224 |

| Sequence | shrunken log2 fold change |
| --- | --- |
| RRIRTRPPRLPRPRPRPYPRPRP | -0.0911 |
| RRIRTRPPRLPRPRPRPYQIPRP | -0.0573 |
| RRIRTRPPRLPRPRPRPYQYPRP | -0.546 |
| RRIRTRPPRLPRPRPRPYSGPRP | -0.00196 |
| RRIRTRPPRLPRPRPRPYTKPRP | -0.248 |
| RRIRTRPPRLPRPRPRPYYQPRP | -0.122 |
| RRIRVRPPRLPRPRPRPAACPRP | 0.244 |
| RRIRVRPPRLPRPRPRPACQPRP | 0.168 |
| RRIRVRPPRLPRPRPRPADFPRP | 0.0696 |
| RRIRVRPPRLPRPRPRPADQPRP | 0.0278 |
| RRIRVRPPRLPRPRPRPADYPRP | 0.0436 |
| RRIRVRPPRLPRPRPRPAEKPRP | 0.00294 |
| RRIRVRPPRLPRPRPRPAEMPRP | 0.0714 |
| RRIRVRPPRLPRPRPRPAESPRP | 0.0613 |
| RRIRVRPPRLPRPRPRPAFHPRP | -0.208 |
| RRIRVRPPRLPRPRPRPAGWPRP | 0.689 |
| RRIRVRPPRLPRPRPRPAGYPRP | -0.0144 |
| RRIRVRPPRLPRPRPRPAHCPRP | 0.122 |
| RRIRVRPPRLPRPRPRPAHYPRP | -0.113 |
| RRIRVRPPRLPRPRPRPAIFPRP | 0.0175 |
| RRIRVRPPRLPRPRPRPAIMPRP | 0.191 |
| RRIRVRPPRLPRPRPRPAIQPRP | -0.0625 |

| Sequence | shrunken log2 fold change |
| --- | --- |
| RRIRVRPPRLPRPRPRPAKLPRP | 0.139 |
| RRIRVRPPRLPRPRPRPAKSPRP | -0.112 |
| RRIRVRPPRLPRPRPRPALQPRP | 0.0743 |
| RRIRVRPPRLPRPRPRPAMEPRP | -0.139 |
| RRIRVRPPRLPRPRPRPAMGPRP | 0.34 |
| RRIRVRPPRLPRPRPRPAMRPRP | 0.6 |
| RRIRVRPPRLPRPRPRPAMTPRP | 0.0589 |
| RRIRVRPPRLPRPRPRPAPAPRP | 0.626 |
| RRIRVRPPRLPRPRPRPAQCPRP | -0.0313 |
| RRIRVRPPRLPRPRPRPAQGPRP | 0.00544 |
| RRIRVRPPRLPRPRPRPARIPRP | 0.149 |
| RRIRVRPPRLPRPRPRPATNPRP | -0.301 |
| RRIRVRPPRLPRPRPRPATWPRP | 0.218 |
| RRIRVRPPRLPRPRPRPAVQPRP | -0.121 |
| RRIRVRPPRLPRPRPRPAWDPRP | 0.258 |
| RRIRVRPPRLPRPRPRPAWPPRP | 0.537 |
| RRIRVRPPRLPRPRPRPCAVPRP | 0.218 |
| RRIRVRPPRLPRPRPRPCCAPRP | 0.151 |
| RRIRVRPPRLPRPRPRPCCIPRP | -0.0914 |
| RRIRVRPPRLPRPRPRPCCYPRP | -0.272 |
| RRIRVRPPRLPRPRPRPCDCPRP | 0.00675 |
